According to the supplement of paper PMC10567573:

B1: SEC22B (parent)
chain: FPKKLAFAYLEDLHSEFDEQHGKK
B2: FBXO3 (parent)
chain: FIDTYSDVGRYIDHYAAIKKAWDD

Variants of: B1
Assay: protein stability index of a GFP-peptide fusion (GPS, HEK-293T) (PSI 1-6); higher = more stable
Conditions: c terminus: a fixed tail appended
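Further: lentivirally expressed fusions sorted by FACS into six bins by GFP to DsRed ratio, PSI derived from sequencing read proportions per bin multiplied by bin number.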

Protein stability index: each site, then its substitutions
L10: D 3.56
P2: N 3.44
F1: V 4.13

Variants of: B2
Assay: as above
Conditions: c terminus: a fixed tail appended

Protein stability index of substitutions, site by site:
V8: I 2.62, K 2.02, A 1.79, Q 1.79, H 1.82, F 1.79, P 2.72, M 2.03, Y 1.81, S 1.72, W 1.62, D 3.07, E 2.32, N 2.2, L 1.92, R 1.59, T 1.65, G 2.07, C 1.9
A16: N 1.12, P 2.07, Q 1.81, V 2.6, Y 2.71, I 1.71, T 1.42, H 2.12, R 1.69, F 1.69, S 1.93, E 1.89, G 2.44, W 1.84, C 2.08, M 1.25, L 2.01, K 2.04, D 1.6
D3: A 2, Q 1.82, S 2.06, Y 2.46, G 3.01, I 2.33, L 2.3, F 1.38, T 1.62, H 1.81, M 2.56, P 2.01, V 2.63, C 1.57, W 1.92, K 1.91, R 1.91, E 2.14, N 1.74
Y15: K 1.93, P 1.57, G 1.87, N 1.97, H 2.32, E 1.94, M 1.55, R 2.61, T 1.82, I 2.15, W 2.08, F 2.14, L 1.53, Q 2.96, V 1.99, A 1.93, S 1.48, D 2.08, C 2.24
G9: S 1.91, E 2.15, T 1.83, L 2.22, H 1.9, M 3.14, K 1.85, I 1.75, V 1.77, Y 2, P 1.85, C 1.65, W 1.83, A 1.62, Q 2.03, D 1.57, N 2.05, F 1.9, R 1.7
H14: W 1.87, R 2.38, I 1.71, A 2.01, D 2.7, G 2.11, L 1.66, V 2.27, F 2.19, N 1.58, E 1.84, C 2.31, T 1.71, M 1.75, K 1.87, Q 1.63, Y 1.82, P 2.38, S 2.49
R10: D 2.32, E 2.56, F 2.23, K 1.82, W 1.46, G 1.92, I 1.48, M 1.75, N 1.88, P 1.78, T 1.83, C 1.9, Q 2.58, L 1.85, V 2.86, H 1.56, Y 1.75, A 1.6, S 2.1
Y11: R 2.37, V 1.93, A 1.82, T 1.59, D 1.78, H 1.78, P 2.24, S 2.2, G 1.66, C 1.66, W 2.39, I 2, E 1.38, M 1.85, K 2.06, L 1.42, N 2.25, F 1.89, Q 2.06
D13: N 2.34, W 2.51, C 1.77, Q 2.7, V 2.2, L 2.24, Y 2.58, A 1.98, I 2.88, M 2.07, K 2.1, T 1.5
